Source: patent publication US20200062863A1 (CSL BEHRING, published 2020)

T1: human Factor XIIa-beta (human, UniProt P00748 354-615, limits assumed)
T1 construct: Bought from Enzyme Research Laboratories; also called FXIIa beta; FXIIa-beta
T1 sequence: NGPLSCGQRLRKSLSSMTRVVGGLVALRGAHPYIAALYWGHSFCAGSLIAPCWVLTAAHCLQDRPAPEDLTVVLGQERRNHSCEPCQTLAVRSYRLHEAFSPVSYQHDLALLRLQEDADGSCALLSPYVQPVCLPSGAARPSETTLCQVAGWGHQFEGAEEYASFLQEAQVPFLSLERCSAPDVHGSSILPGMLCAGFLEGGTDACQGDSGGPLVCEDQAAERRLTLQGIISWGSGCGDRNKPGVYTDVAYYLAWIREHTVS


Each binder was assayed against T1, human Factor XIIa-beta (assay: SPR (Biacore A100), unpurified IgG4 supernatant captured on anti-human IgG, single FXIIa beta concentration (100 nM), 37 C, 1:1 fit; estimated).
Description: Anti-human (Goat anti-human IgG (gamma) mouse adsorbed, Invitrogen, Cat No. H10500) was chemically immobilised on a CM-5 sensor surface using amine coupling chemistry. Culture supernatants were diluted 1/60 with running buffer before capture. Antibodies were captured for 180 seconds representing an average capture of 800 response units (RU). FXIIa beta was then injected at zero and 100 nM for 180 seconds, and dissociated for 180 seconds. All assays were conducted on a Biacore A100 instrument at 37 degrees Celsius and the data fitted to a 1:1 kinetic model.

| Binder | Kd [nM] |
| --- | --- |
| VR63 (antibody, V domains shown, Libraries were built on germline stop templates, so frameworks may differ) VH: EVQLLESGGGLVQPGGSLRLSCAASGFTFSKYIMQWVRQAPGKGLEWVSGIRPSGGTTVYADSVKGRFTISRDNSKNTLYLQMNSLRAEDTAVYYCARALPRSGYLISPHYYYYALDVWGQGTTVTVSS VL: QSELTQPPSASGTPGQRVTISCSGSSSNIGRNYVYWYQQVPGTAPKLLIYSNNQRPSGVPDRFSGSKSGTSASLVISGLRSEDEADYYCAAWDNQVRLGFGGGTKLTVLG | 8.3 |
| VR103 (antibody, V domains shown, Libraries were built on germline stop templates, so frameworks may differ) VH: EVQLLESGGGLVQPGGSLRLSCAASGFTFSKYIMQWVRQAPGKGLEWVSGIDVPVRGTVYADSVKGRFTISRDNSKNTLYLQMNSLRAEDTAVYYCARALPRSGYLISPHYYYYALDVWGQGTTVTVSS VL: QSELTQPPSASGTPGQRVTISCSGSSSNIGRNYVYWYQQVPGTAPKLLIYSNNQRPSGVPDRFSGSKSGTSASLVISGLRSEDEADYYCAAWDASLRGVFGGGTKLTVLG | 2.87 |
| VR108 (antibody, V domains shown, Libraries were built on germline stop templates, so frameworks may differ) VH: EVQLLESGGGLVQPGGSLRLSCAASGFTFSKYIMQWVRQAPGKGLEWVSGINPATKTTVYADSVKGRFTISRDNSKNTLYLQMNSLRAEDTAVYYCARALPRSGYLISPHYYYYALDVWGQGTTVTVSS VL: QSELTQPPSASGTPGQRVTISCSGSSSNIGRNYVYWYQQVPGTAPKLLIYSNNQRPSGVPDRFSGSKSGTSASLVISGLRSEDEADYYCAAWDASLRGVFGGGTKLTVLG | 2.81 |

Next, values leading:

| Kd [nM] | Binder |
| --- | --- |
| 5.98 | VR109 (antibody, V domains shown, Libraries were built on germline stop templates, so frameworks may differ) VH: EVQLLESGGGLVQPGGSLRLSCAASGFTFSKYIMQWVRQAPGKGLEWVSGINPATNTTVYADSVKGRFTISRDNSKNTLYLQMNSLRAEDTAVYYCARALPRSGYLISPHYYYYALDVWGQGTTVTVSS VL: QSELTQPPSASGTPGQRVTISCSGSSSNIGRNYVYWYQQVPGTAPKLLIYSNNQRPSGVPDRFSGSKSGTSASLVISGLRSEDEADYYCAAWDASLRGVFGGGTKLTVLG |
| 9.19 | VR99 (antibody, V domains shown, Libraries were built on germline stop templates, so frameworks may differ) VH: EVQLLESGGGLVQPGGSLRLSCAASGFTFSKYIMQWVRQAPGKGLEWVSGINPATMTTVYADSVKGRFTISRDNSKNTLYLQMNSLRAEDTAVYYCARALPRSGYLISPHYYYYALDVWGQGTTVTVSS VL: QSELTQPPSASGTPGQRVTISCSGSSSNIGRNYVYWYQQVPGTAPKLLIYSNNQRPSGVPDRFSGSKSGTSASLVISGLRSEDEADYYCAAWDASLRGVFGGGTKLTVLG |
| 6.93 | VR148 (antibody, V domains shown, Libraries were built on germline stop templates, so frameworks may differ) VH: EVQLLESGGGLVQPGGSLRLSCAASGFTFSKYIMQWVRQAPGKGLEWVSGIRPSGGTTVYADSVKGRFTISRDNSKNTLYLQMNSLRAEDTAVYYCARALPRSGYLVKKQYYYYALDVWGQGTTVTVSS VL: QSELTQPPSASGTPGQRVTISCSGSSSNIGRNYVYWYQQVPGTAPKLLIYSNNQRPSGVPDRFSGSKSGTSASLVISGLRSEDEADYYCAAWDASLRGVFGGGTKLTVLG |
| 3.33 | VR101 (antibody, V domains shown, Libraries were built on germline stop templates, so frameworks may differ) VH: EVQLLESGGGLVQPGGSLRLSCAASGFTFSKYIMQWVRQAPGKGLEWVSGINPATRSTVYADSVKGRFTISRDNSKNTLYLQMNSLRAEDTAVYYCARALPRSGYLISPHYYYYALDVWGQGTTVTVSS VL: QSELTQPPSASGTPGQRVTISCSGSSSNIGRNYVYWYQQVPGTAPKLLIYSNNQRPSGVPDRFSGSKSGTSASLVISGLRSEDEADYYCAAWDASLRGVFGGGTKLTVLG |
| 2.45 | VR107 (antibody, V domains shown, Libraries were built on germline stop templates, so frameworks may differ) VH: EVQLLESGGGLVQPGGSLRLSCAASGFTFSKYIMQWVRQAPGKGLEWVSGINPATRTTVYADSVKGRFTISRDNSKNTLYLQMNSLRAEDTAVYYCARALPRSGYLISPHYYYYALDVWGQGTTVTVSS VL: QSELTQPPSASGTPGQRVTISCSGSSSNIGRNYVYWYQQVPGTAPKLLIYSNNQRPSGVPDRFSGSKSGTSASLVISGLRSEDEADYYCAAWDASLRGVFGGGTKLTVLG |
